According to patent EP2216341A1, “Transferrin variants and conjugates” (Novozymes Biopharma UK Limited, priority 2009, dated 2010):

Biological target: transferrin receptors on human K562 erythroleukemic cells
Experiment: cell-based or functional assay

| Specific iron uptake Bmax (fmol 55Fe/10^6 cells x 25min) | Specific iron uptake Kd (nM transferrin) [nM] | Total Iron Uptake Bmax (fmol 55Fe/10^6 cells x 25min) | Substance |
| --- | --- | --- | --- |
| 2430 | 154 | 3290 | Fluorescein conjugated thiotransferrin (S28C, S415A, T613A) (ligand) |
| 3250 | 189 | 4160 | Fluorescein conjugated thiotransferrin (S415C, T613A) (ligand) |
|  |  | 4250 | Human plasma-derived apo-transferrin (Calbiochem 616419) (from UniProt P02787 20-698) (ligand) |
| 3020 | 209 | 4210 | recombinant thiotransferrin (S28C, S415A, T613A) (ligand) |
| 2360 | 203 | 3690 | recombinant thiotransferrin (S415C, T613A) (ligand) |
| 2830 | 130 | 4050 | recombinant transferrin (S415A, T613A) (ligand) |
